Test results reported in PMC10891854.

Molecular target: recombinant Pseudothermotoga hypogea iron-containing alcohol dehydrogenase (Pseudothermotoga hypogea)
Test: SEC; Superdex 200 (2.6 x 60 cm), 50 mM Tris-HCl pH 7.8, 100 mM KCl, 2 mL/min; native size worked out from the elution volume against standard proteins and compared with the subunit size by SDS-PAGE

stoichiometry N: 2
Substance: recombinant Pseudothermotoga hypogea iron-containing alcohol dehydrogenase (enzyme)
